Assay results published in US20100092489A1 (Genmab, published 2010).

Legend:
[1] = target: T1, human CD38 expressed on cells (CHO-CD38, Daudi-luc, fresh multiple myeloma tumor cells) (human, UniProt P28907 1-300); assay: flow cytometry on fresh MM tumor cells, FITC-labeled antibody
T1 construct: the cell that carries it is named under assay in each row; also called CD38-CHO; cellular expressed CD38

[2] = target: T1, human CD38 expressed on cells …; assay: flow cytometry on CHO-CD38 cells, rabbit anti-human IgG-FITC
Protocol: (§1) After harvesting and counting, Daudi-luc cells, CHO cells transfected with CD38 and control CHO cells were resuspended in PBS (1×10⁶ cells/ml). Then, cells were put in 96-well V-bottom plates (100 μl/well) and washed twice in PBS-BSA (PBS supplemented with 0.1% BSA and 0.02% Na-azide). Thereafter, 50 μl antibody solution in PBS-BSA was added to the cells (4° C., 30 min). After washing three times in PBS-BSA, 50 μl (1:400 dilution) of rabbit anti-human IgG-FITC in PBS-BSA was added (4° C. in the dark, 30 min). Cells were washed three times and specific binding of CD38-antibodies to CHO-CD38 and Daudi-luc cells was detected by flow cytometry.

[3] = target: T1, human CD38 expressed on cells …; assay: cell-based or functional assay
[4] = target: T2, HA-CD38 (HA-tagged extracellular domain of human CD38, wild type) (human, UniProt P28907 43-300); assay: SPR, Biacore 3000, 25° C., antibody immobilized on CM-5 chip, HA-tagged CD38 flowed over; mean of 3 experiments ± SD
T2 construct: The signal peptide SPHMM of the construct is not part of the secreted protein; also called HA-tagged CD38; wt human CD38; not shown: N-terminal HA-tag introduced by PCR primer cd38forha

[5] = target: T1, human CD38 expressed on cells …; assay: flow cytometry on Daudi-luc cells, rabbit anti-human IgG-FITC
Protocol: as §1

[6] = target: T1, human CD38 expressed on cells …; assay: cell-based or functional assay; remark: listed apart in the source
[7] = target: T1, human CD38 expressed on cells …; assay: cell-based or functional assay; remark: listed apart in the source
[8] = target: T1, human CD38 expressed on cells …; assay: cell-based or functional assay; remark: listed apart in the source

Row | Binder | EC50 [1] | EC50 [2] | EC50, CDC of CHO-CD38 cells (n = 2) [3] | Ka [4] | Kd [4] | EC50 [5] | EC50 CD38-CHO, CDC [6] | EC50 Daudi-luc, CDC [6] | Log EC50, ADCC of Daudi target cells (n=5) [7] | EC50 Daudi-luc, ADCC (51Cr release) [8] | EC50 MM cells, ADCC (51Cr release) [8]
1 | antibody -003 (antibody, human IgG1, V domains shown, Human monoclonal IgG1 antibody; Recombinant form made with human IgG1 heavy chain constant region (pConG1f0.4) and kappa light chain constant region (pConKappa0.4); FITC-labelled in some assays; also called HuMab -003; -003-2F5) VH: not shown VL: DIQMTQSPSSLSASVGDRVTITCRASQGISSWLAWYQQKPEKAPKSLIYAASSLQSGVPSRFSGSGSGTDFTLTISSLQPEDFATYYCQQYNSYPRTFGQGTKVEIK | 0.56 mg/L | 0.54 mg/L | 4.5 mg/L | 1.14e+09 M⁻¹ | 0.885 nM | 0.26 mg/L | 3.14 mg/L | > 90 mg/L | 1.17 | 0.009 mg/L | 0.027 mg/L
2 | antibody -024 (antibody, human IgG1, V domains shown, Human monoclonal IgG1 antibody; Recombinant form made with human IgG1 heavy chain constant region (pConG1f0.4) and kappa light chain constant region (pConKappa0.4)) VH: EVQLVQSGAEVKKPGESLKISCKGSGYSFSNYWIGWVRQMPGKGLEWMGIIYPHDSDARYSPSFQGQVTFSADKSISTAYLQWSSLKASDTAMYYCARHVGWGSRYWYFDLWGRGTLVTVSS VL: EIVLTQSPATLSLSPGERATLSCRASQSVSSYLAWYQQKPGQAPGLLIYDASNRASGIPARFSGSGSGTDFTLTISSLEPEDFAVYYCQQRSNWPLTFGGGTKVEIK | 0.02 mg/L | 0.08 mg/L |  |  |  | 0.05 mg/L | 0.24 mg/L | > 90 mg/L |  | 0.0097 mg/L | 0.056 mg/L
